This note sets out measurements from US20200345839A1 (DESENTUM, published 2020).

This series concerns the molecule itself. Kind of series: native ESI FT-ICR mass spectrometry, 40 uM in 10 mM ammonium acetate (self-association). Here is the method:
The mass spectrometric experiments were performed with a 12T solariX XR mass spectrometer (Bruker Daltonics, Billerica, Mass., USA), equipped with an Apollo II ion funnel electrospray source. Before a mass spectrometric analysis, the protein sample was exchanged into an ESI-MS compatible ammonium acetate buffer (10 mM, pH 6.9) by using disposable PD-10 desalting columns (GE Healthcare). For mass spectrometric measurements in denaturing solution conditions, protein sample was diluted to 0.2 μM with acetonitrile/water/acetic acid solution. The protein solution was directly infused into the ion source by a syringe pump with a flow rate of […]. The temperature of the drying gas was 200° C. and the pressure of the nebulizing gas was 1.0 bar. Mass spectra were acquired in the positive ion mode over the m/z range of 800-3000 with 1-Mword time-domain transients and 0.05 sec ion accumulation. […] Desalted protein samples were usually measured at a concentration of 40 μM in 10 mM ammonium acetate buffer. Typically, 100 co-added 256-kword time-domain transients were recorded and processed to 512-kword data prior to fast Fourier transform and frequency to mass conversion. The wild-type Equ c 1 allergen and the Equ c 1 mutants were measured using the same instrumental parameters, in order to avoid any bias between the protein samples. […]

B1: recombinant wild-type Equ c 1 allergen (other)
chain: QQEENSDVAIRNFDISKISGEWYSIFLASDVKEKIEENGSMRVFVDVIRALDNSSLYAEYQTKVNGECTEFPMVFDKTEEDGVYSLNYDGYNVFRISEFENDEHIILYLVNFDKDRPFQLFEFYAREPDVSPEIKEEFVKIVQKRGIVKENIIDLTKIDRCFQLRGNGVAQA
notes: Reported to exist mainly as a dimer at 40 uM; also called rEqu c 1 wt; wt rEqu c 1
B1: the binding result is listed as “binds”.
